Experimental data taken from patent US20060193849A1.

Biological target: MUC-1 gene product, the membrane mucin glycoprotein (polymorphic epithelial mucin or PEM) (human) (UniProt P15941)
Assay: flow cytometry equilibrium binding on MCF7 cells
Details: scFv

MUC-1 gene product, the membrane mucin glycoprotein (polymorphic epithelial mucin or PEM) (human), sequence (P15941 24-1255): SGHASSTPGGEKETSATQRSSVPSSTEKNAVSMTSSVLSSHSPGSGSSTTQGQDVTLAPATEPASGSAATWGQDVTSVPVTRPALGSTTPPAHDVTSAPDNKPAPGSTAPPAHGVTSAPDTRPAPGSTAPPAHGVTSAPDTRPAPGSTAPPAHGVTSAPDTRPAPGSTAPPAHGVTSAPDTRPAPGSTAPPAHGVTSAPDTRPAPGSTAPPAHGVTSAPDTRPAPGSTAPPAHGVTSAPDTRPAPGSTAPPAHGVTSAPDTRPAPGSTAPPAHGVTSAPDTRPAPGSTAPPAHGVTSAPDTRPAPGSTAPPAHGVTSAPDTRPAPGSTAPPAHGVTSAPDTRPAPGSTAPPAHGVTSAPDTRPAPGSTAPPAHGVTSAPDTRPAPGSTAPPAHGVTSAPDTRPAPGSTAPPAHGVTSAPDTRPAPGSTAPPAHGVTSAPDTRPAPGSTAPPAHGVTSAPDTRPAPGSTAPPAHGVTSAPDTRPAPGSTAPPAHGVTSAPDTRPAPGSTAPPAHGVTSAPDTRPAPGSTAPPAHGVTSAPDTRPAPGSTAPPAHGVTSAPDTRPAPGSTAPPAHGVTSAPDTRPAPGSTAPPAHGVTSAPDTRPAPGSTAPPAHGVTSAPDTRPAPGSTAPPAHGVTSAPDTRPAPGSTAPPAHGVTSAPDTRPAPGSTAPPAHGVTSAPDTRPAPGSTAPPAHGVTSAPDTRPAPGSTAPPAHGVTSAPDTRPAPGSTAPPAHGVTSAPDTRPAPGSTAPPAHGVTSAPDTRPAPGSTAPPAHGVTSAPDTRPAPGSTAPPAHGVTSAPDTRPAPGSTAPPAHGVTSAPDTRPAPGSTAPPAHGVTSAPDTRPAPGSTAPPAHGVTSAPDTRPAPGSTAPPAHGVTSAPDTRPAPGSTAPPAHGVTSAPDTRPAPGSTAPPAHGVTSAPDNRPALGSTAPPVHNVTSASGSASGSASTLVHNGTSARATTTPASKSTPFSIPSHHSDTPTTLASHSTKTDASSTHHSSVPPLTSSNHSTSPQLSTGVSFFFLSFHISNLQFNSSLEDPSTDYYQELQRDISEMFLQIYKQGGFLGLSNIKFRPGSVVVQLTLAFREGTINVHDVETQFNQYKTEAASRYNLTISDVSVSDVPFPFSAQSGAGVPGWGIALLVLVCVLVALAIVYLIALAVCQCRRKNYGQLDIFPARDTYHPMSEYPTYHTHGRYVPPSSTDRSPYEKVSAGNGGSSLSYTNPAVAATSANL

Kd: 199 nM
Substance: huHMFG1 wild-type scFv 22W
